According to patent US20200317768A1 (published 2020):
Substitutions are numbered along the chain they refer to. Names and notes keep the numbering of the source.

T1: cynomolgus monkey FcγRIIa2 extracellular domain, C-terminal His-tag (cynomolgus monkey)
T1 construct: also called cyno FcγRIIa2; cynoFcgRIIa2; not shown: His-tag added to C-terminus
T1 chain: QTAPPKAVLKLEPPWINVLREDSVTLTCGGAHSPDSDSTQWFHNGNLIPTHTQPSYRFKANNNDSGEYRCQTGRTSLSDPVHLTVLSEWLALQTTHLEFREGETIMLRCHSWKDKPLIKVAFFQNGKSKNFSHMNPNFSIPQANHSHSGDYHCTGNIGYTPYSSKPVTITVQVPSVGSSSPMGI

T2: cynomolgus monkey FcγRIIb extracellular domain, C-terminal His-tag (cynomolgus monkey)
T2 construct: also called cyno FcγRIIb; cynoFcγRIIb; not shown: His-tag added to C-terminus
T2 chain: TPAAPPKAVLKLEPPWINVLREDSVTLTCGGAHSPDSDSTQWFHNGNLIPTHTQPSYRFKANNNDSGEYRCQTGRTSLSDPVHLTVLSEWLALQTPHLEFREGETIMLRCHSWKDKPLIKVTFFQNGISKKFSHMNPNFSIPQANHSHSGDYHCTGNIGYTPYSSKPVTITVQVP

T3: cynomolgus monkey FcγRIIa3 extracellular domain, C-terminal His-tag (cynomolgus monkey)
T3 construct: also called cyno FcγRIIa3; cynoFcgRIIa3; not shown: His-tag added to C-terminus
T3 chain: T1 chain with K127I, N130K, H133P, Q142R

T4: human FcγRIIaH extracellular domain, C-terminal His-tag (human, UniProt P12318 34-217)
T4 construct: also called human FcγRIIa (type H); FcgRIIaH; not shown: His-tag added to C-terminus
T4 sequence: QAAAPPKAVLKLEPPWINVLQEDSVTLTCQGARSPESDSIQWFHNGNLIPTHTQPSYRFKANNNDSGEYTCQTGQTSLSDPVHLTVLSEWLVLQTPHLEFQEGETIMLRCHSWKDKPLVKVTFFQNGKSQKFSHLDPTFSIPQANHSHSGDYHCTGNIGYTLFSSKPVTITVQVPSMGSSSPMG

T5: human FcγRIIaR extracellular domain, C-terminal His-tag (human, UniProt P12318 34-217)
T5 construct: also called human FcγRIIa (type R); FcgRIIaR; not shown: His-tag added to C-terminus
T5 chain: T4 sequence with H134R

T6: human FcγRIIb extracellular domain, C-terminal His-tag (human, UniProt P31994 43-217)
T6 construct: also called humanFcgRIIb; not shown: His-tag added to C-terminus
T6 sequence: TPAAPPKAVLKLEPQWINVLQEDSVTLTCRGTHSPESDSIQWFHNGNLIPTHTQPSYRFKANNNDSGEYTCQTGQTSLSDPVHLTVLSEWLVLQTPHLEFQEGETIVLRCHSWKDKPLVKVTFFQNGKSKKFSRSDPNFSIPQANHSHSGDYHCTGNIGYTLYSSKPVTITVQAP

T7: cynomolgus monkey FcγRIIa1 extracellular domain, C-terminal His-tag (cynomolgus monkey)
T7 construct: also called cyno FcγRIIa1; cynoFcgRIIa1; not shown: His-tag added to C-terminus
T7 chain: T1 chain with T95P, A121T, K127I, S128A, N130K, N135D, Q142R

B1: M103205H795-SG1012 / M103202L889-SK1 (antibody, human IgG1, kappa)
heavy: QVTLKESGPVLVKPTETLTLTCTVSGIDLSHDDISWVRQAPGKGLEWVGIISYAGSTYYASWAKGRLTISKDTSKNQVVLTMTNMDPVDTATYYCARGVPAYSHGGDLWGQGTLVTVSSASTKGPSVFPLAPSSKSTSGGTAALGCLVKDYFPEPVTVSWNSGALTSGVHTFPAVLQSSGLYSLSSVVTVPSSSLGTQTYICNVNHKPSNTKVDKKVEPKSCDKTHTCPPCPAPELLNGPSVFLFPPKPKDTLMISRTPEVTCVVVDVSEEDPEVKFNWYVDGVEVHNAKTKPREEQYNSTYRVVSVLTVLHQDWLNGKEYKCKVSNKALPKPIEKTISKAKGQPREPQVYTLPPSREEMTKNQVSLTCLVKGFYPSDIAVEWESNGQPENNYKTTPMVLDSDGSFFLYSKLTVDKSRWQQGNVFSCSVMHEALHAHYTQKSLSLSP
light: DIVMTQSPATLSLSPGERATLSCTSSQSVYHANWLSWFQQKPGQPPKLLIYWASTLAYGVPSRFSGSGSGTDFTLTISSLQPEDAATYYCAGGYGGGRYAFGQGTKVEIKRTVAAPSVFIFPPSDEQLKSGTASVVCLLNNFYPREAKVQWKVDNALQSGNSQESVTEQDSKDSTYSLSSTLTLSKADYEKHKVYACEVTHQGLSSPVTKSFNRGEC
notes: the text says N434A was introduced into MY101 (which also has A330K); also called MS1032LO06-SG1012
B2: M103205H795-SG1016 / M103202L889-SK1 (antibody, human IgG1, kappa)
heavy: B1 heavy with Q313R, D401R
light: B1 light
notes: the text says Q311R/D399K; also called MS1032LO06-SG1016
B3: M103205H795-SG1029 / M103202L889-SK1 (antibody, human IgG1, kappa)
heavy: B1 heavy with E270D, Q297L, Q313R, M398P, D415K
light: B1 light
notes: CH with G236N/H268D/Q295L/Q311R/A330K/D413K/N434A against SG1 (EU numbering); also called MS1032LO06-SG1029
B4: M103205H795-SG1031 / M103202L889-SK1 (antibody, human IgG1, kappa)
heavy: B1 heavy with E270D, Q313R, M398P, D415K
light: B1 light
notes: CH with G236N/H268D/Q311R/A330K/D413K/N434A against SG1 (EU numbering); also called MS1032LO06-SG1031
B5: M103205H795-SG1033 / M103202L889-SK1 (antibody, human IgG1, kappa)
heavy: B1 heavy with E270D, M398P
light: B1 light
notes: CH with G236N/H268D/A330K/N434A against SG1 (EU numbering); also called MS1032LO06-SG1033

Target: T1, cynomolgus monkey FcγRIIa2 …
Assay: SPR (BIACORE); KD of parent SG1 / KD of variant;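 further: relative to parent M103205H795-SG1 carrying the SG1 human heavy chain constant region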
Method: (§1) The kinetic analysis of interactions between these antibodies and FcγR was carried out using BIACORE® T200 or BIACORE® 4000 (GE Healthcare). HBS-EP+ (GE Healthcare) was used as the running buffer, and the measurement temperature was set to 25° C. A chip produced by immobilizing Protein A. Protein A/G or mouse anti-human IgG kappa light chain (BD Biosciences) onto a Series S Sensor Chip CM4 or CM5 (GE Healthcare) by the amine-coupling method was used. […] After the measurement, the antibody captured on the chip was washed off by allowing reaction with 10 mM glycine-HCl, pH1.5 and 25 mM NaOH so that the chip was regenerated and used repeatedly. The sensorgrams obtained as measurement results were analyzed by the 1:1 Langmuir binding model using the BIACORE® Evaluation Software to calculate the binding rate constant ka (L/mol/s) and dissociation rate constant kd (l/s), and the dissociation constant KD (mol/L) was calculated from these values. […] Regarding such interactions, KD values were calculated using the following 1:1 binding model described in BIACORE® T100 Software Handbook BR1006-48 Edition AE.

KD fold (SG1 = 1) [fold] | Binder
4.7 | B1
4.1 | B2
3.1 | B3
3.1 | B4
3 | B5

These binders were tested against T8, human FcγRIIIaV extracellular domain, C-terminal His-tag (human, UniProt P08637 17-208) (assay: SPR (BIACORE); KD of parent SG1 / KD of variant;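 further: relative to parent M103205H795-SG1 carrying the SG1 human heavy chain constant region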).
T8 construct: also called FcgRIIIaV; not shown: His-tag added to C-terminus
Method: as §1

T8 sequence (P08637 17-208 F176V): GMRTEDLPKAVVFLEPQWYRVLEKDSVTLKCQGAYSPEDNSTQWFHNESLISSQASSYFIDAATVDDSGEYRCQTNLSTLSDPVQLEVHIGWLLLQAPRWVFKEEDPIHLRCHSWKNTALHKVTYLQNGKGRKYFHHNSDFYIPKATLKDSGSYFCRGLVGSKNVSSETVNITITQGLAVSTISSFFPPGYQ

KD fold (SG1 = 1) [fold] | Binder
0.11 | B1
0.06 | B2
0.03 | B3
0.04 | B4
0.05 | B5

Target: T2, cynomolgus monkey FcγRIIb extracellular …
Assay: SPR (BIACORE); KD of parent SG1 / KD of variant;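 further: relative to parent M103205H795-SG1 carrying the SG1 human heavy chain constant region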
Method: as §1

KD fold (SG1 = 1) [fold] | Binder
7.2 | B1
6 | B2
4.9 | B3
3.9 | B4
3.9 | B5

Target: T3, cynomolgus monkey FcγRIIa3 …
Assay: SPR (BIACORE); KD of parent SG1 / KD of variant;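 further: relative to parent M103205H795-SG1 carrying the SG1 human heavy chain constant region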
Method: as §1

KD fold (SG1 = 1) [fold] | Binder
3.8 | B1
3.9 | B2
2.8 | B3
3.1 | B4
2.9 | B5

What follows are binders tested against T4, human FcγRIIaH extracellular domain, … (assay: SPR (BIACORE); KD of parent SG1 / KD of variant).
Method: as §1

KD fold (SG1 = 1) [fold] | Binder
1.8 | B1
1.5 | B2
1.1 | B3
0.7 | B4
0.7 | B5

Target: T5, human FcγRIIaR extracellular domain, …
Assay: SPR (BIACORE); KD of parent SG1 / KD of variant
Method: as §1

KD fold (SG1 = 1) [fold] | Binder
1.4 | B1
1.2 | B2
0.8 | B3
1.3 | B4
1 | B5

What follows are binders tested against T9, cynomolgus monkey FcγRIIIaS extracellular domain, C-terminal His-tag (cynomolgus monkey, UniProt A3RFZ7 21-206 (rhesus entry)) (assay: SPR (BIACORE); KD of parent SG1 / KD of variant).
T9 construct: also called cyno FcγRIIIaS; cynoFcγRIIIaS; not shown: His-tag added to C-terminus
Method: as §1

T9 sequence (A3RFZ7 21-206): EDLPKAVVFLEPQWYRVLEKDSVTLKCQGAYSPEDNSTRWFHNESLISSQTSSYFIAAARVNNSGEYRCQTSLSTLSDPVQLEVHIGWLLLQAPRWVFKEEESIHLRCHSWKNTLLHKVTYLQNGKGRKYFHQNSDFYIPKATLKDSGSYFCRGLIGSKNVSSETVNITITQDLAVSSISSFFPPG

KD fold (SG1 = 1) [fold] | Binder
0.13 | B1
0.12 | B2
0.05 | B3
0.06 | B4
0.06 | B5

The binders below were run against T6, human FcγRIIb extracellular domain, … (assay: SPR (BIACORE); KD of parent SG1 / KD of variant).
Method: as §1

KD fold (SG1 = 1) [fold] | Binder
9.6 | B1
8.7 | B2
5.3 | B3
3.8 | B4
3.9 | B5

Target: T7, cynomolgus monkey FcγRIIa1 …
Assay: SPR (BIACORE); KD of parent SG1 / KD of variant
Method: as §1

KD fold (SG1 = 1) [fold] | Binder
4.4 | B1
3.8 | B2
3.5 | B3
2.6 | B4
2.6 | B5

Target: T1, cynomolgus monkey FcγRIIa2 …
Assay: SPR (BIACORE), antibody captured, FcγR analyte
Method: as §1

Kd [µM] | Binder
1 | B1
1.1 | B2
1.5 | B3
1.5 | B4
1.5 | B5

These binders were tested against T8, human FcγRIIIaV extracellular domain, … (assay: SPR (BIACORE), antibody captured, FcγR analyte).
Method: as §1

Kd [µM] | Binder
5.8 | B1
10 | B2
20 | B3
15 | B4
12 | B5

Target: T2, cynomolgus monkey FcγRIIb extracellular …
Assay: SPR (BIACORE), antibody captured, FcγR analyte
Method: as §1

Kd [µM] | Binder
0.27 | B1
0.33 | B2
0.4 | B3
0.5 | B4
0.5 | B5

Target: T3, cynomolgus monkey FcγRIIa3 …
Assay: SPR (BIACORE), antibody captured, FcγR analyte
Method: as §1

Kd [µM] | Binder
2.3 | B1
2.2 | B2
3.1 | B3
2.8 | B4
3 | B5

What follows are binders tested against T4, human FcγRIIaH extracellular domain, … (assay: SPR (BIACORE), antibody captured, FcγR analyte).
Method: as §1

Kd [µM] | Binder
0.5 | B1
0.5 | B2
0.79 | B3
1.8 | B4
1.2 | B5

Target: T5, human FcγRIIaR extracellular domain, …
Assay: SPR (BIACORE), antibody captured, FcγR analyte
Method: as §1

Kd [µM] | Binder
0.75 | B1
0.82 | B2
1.3 | B3
0.8 | B4
1 | B5

The binders below were run against T9, cynomolgus monkey FcγRIIIaS … (assay: SPR (BIACORE), antibody captured, FcγR analyte).
Method: as §1

Kd [µM] | Binder
2.1 | B1
2.4 | B2
5.3 | B3
4.4 | B4
4.4 | B5

The binders below were run against T6, human FcγRIIb extracellular domain, … (assay: SPR (BIACORE), antibody captured, FcγR analyte).
Method: as §1

Kd [µM] | Binder
0.49 | B1
0.55 | B2
0.9 | B3
1.2 | B4
1.2 | B5

Target: T7, cynomolgus monkey FcγRIIa1 …
Assay: SPR (BIACORE), antibody captured, FcγR analyte
Method: as §1

Kd [µM] | Binder
1.1 | B1
1.3 | B2
1.4 | B3
1.8 | B4
1.8 | B5
